B1: 35O22 (antibody, V domains shown)
VH: QGQLVQSGAELKKPGASVKISCKTSGYRFNFYHINWIRQTAGRGPEWMGWISPYSGDKNLAPAFQDRVIMTTDTEVPVTSFTSTGAAYMEIRNLKFDDTGTYFCAKGLLRDGSSTWLPYLWGQGTLLTVSS
VL: QSVLTQSASVSGSLGQSVTISCTGPNSVCCSHKSISWYQWPPGRAPTLIIYEDNERAPGISPRFSGYKSYWSAYLTISDLRPEDETTYYCCSYTHNSGCVFGTGTKVSVL
B2: PentaNAb2.0 ScFv (10E8v4_S100cF-5X-35O22-5X-N6-5X-PGT121-5X-VRC26.25-His) (scFv)
scFv: SELTQDPAVSVALKQTVTITCRGDSLRSHYASWYQKKPGQAPVLLFYGKNNRPSGIPDRFSGSASGNRASLTITGAQAEDEADYYCSSRDKSGSRLSVFGGGTKLTVLGGGGSGGGGSGGGGSEVRLVESGGGLVKPGGSLRLSCSASGFDFDNAWMTWVRQPPGKGLEWVGRITGPGEGWSVDYAESVKGRFTISRDNTKNTLYLEMNNVRTEDTGYYFCARTGKYYDFWFGYPPGEEYFQDWGQGTLVIVSSGGGGSGGGGSGGGGSGGGGSGGGGSQSVLTQSASVSGSLGQSVTISCTGPNSVCCSHKSISWYQWPPGRAPTLIIYEDNERAPGISPRFSGYKSYWSAYLTISDLRPEDETTYYCCSYTHNSGCVFGTGTKVSVLGGGGSGGGGSGGGGSQGQLVQSGAELKKPGASVKISCKTSGYRFNFYHINWIRQTAGRGPEWMGWISPYSGDKNLAPAFQDRVIMTTDTEVPVTSFTSTGAAYMEIRNLKFDDTGTYFCAKGLLRDGSSTWLPYLWGQGTLLTVSSGGGGSGGGGSGGGGSGGGGSGGGGSYIHVTQSPSSLSVSIGDRVTINCQTSQGVGSDLHWYQHKPGRAPKLLIHHTSSVEDGVPSRFSGSGFHTSFNLTISDLQADDIATYYCQVLQFFGRGSRLHIKGGGGSGGGGSGGGGSRAHLVQSGTAMKKPGASVRVSCQTSGYTFTAHILFWFRQAPGRGLEWVGWIKPQYGAVNFGGGFRDRVTLTRDVYREIAYMDIRGLKPDDTAVYYCARDRSYGDSSWALDAWGQGTTVVVSAGGGGSGGGGSGGGGSGGGGSGGGGSSDISVAPGETARISCGEKSLGSRAVQWYQHRAGQAPSLIIYNNQDRPSGIPERFSGSPDSPFGTTATLTITSVEAGDEADYYCHIWDSRVPTKWVFGGGTTLTVLGGGGSGGGGSGGGGSQMQLQESGPGLVKPSETLSLTCSVSGASISDSYWSWIRRSPGKGLEWIGYVHKSGDTNYSPSLKSRVNLSLDTSKNQVSLSLVAATAADSGKYYCARTLHGRRIYGIVAFNEWFTYFYMDVWGNGTQVTVSSGGGGSGGGGSGGGGSGGGGSGGGGSQSVLTQPPSVSAAPGQKVTISCSGNTSNIGNNFVSWYQQRPGRAPQLLIYETDKRPSGIPDRFSASKSGTSGTLAITGLQTGDEADYYCATWAASLSSARVFGTGTKVIVLVGGGGSGGGGSGGGGSQVQLVESGGGVVQPGTSLRLSCAASQFRFDGYGMHWVRQAPGKGLEWVASISHDGIKKYHAEKVWGRFTISRDNSKNTLYLQMNSLRPEDTALYYCAKDLREDECEEWWSDYYDFGKQLPCAKSRGGLVGIADNWGQGTMVTVSSGSGHHHHHH

Target: HIV-1 Env of the 208-pseudovirus panel (Table 1)
Experiment: cell-based or functional assay

Row | Binder | virus isolate coverage (neutralization breadth), 208-virus panel | IC50 geomean, neutralization of 208-virus panel
1 | B1 | 45.2% | –
2 | B2 | 99.6% | 6 ng/mL

From US20220227845A1
